Experimental data published in patent US20250320305A1.

Assays:
[1] = target: biotinylated recombinant human FAP (human) (UniProt Q12884); assay: SPR (Biacore)
[2] = target: biotinylated recombinant human FAP (human) (UniProt Q12884); assay: SPR (Biacore), biotinylated huFAP on CAPture chip, Fab analyte
[3] = target: human CD40 expressed on cells (human) (UniProt P25942); assay: flow cytometry, Raji cells
[4] = target: human CD40 expressed on cells (human) (UniProt P25942); assay: flow cytometry, primary human B cells
[5] = target: human CD40 extracellular domain with C-terminal His-AviTag (human) (UniProt P25942); assay: SPR, antibody captured, CD40 ECD analyte

Row | Kd [1] [pM] | T ½ [1] [min] | koff [1] [s⁻¹] | kon [1] [M⁻¹ s⁻¹] | Kd [2] [pM] | koff [2] [s⁻¹] | kon [2] [M⁻¹ s⁻¹] | EC50 [3] [µg/mL] | EC50 [4] [pM] | Kd [5] [pM] | koff [5] [s⁻¹] | kon [5] [M⁻¹ s⁻¹] | Binder
1 | 279 | 55 | 0.000208 | 747000 | 430 | 0.00078 | 1.82e+06 |  |  |  |  |  | 4B9_Fab (Fab, from a related filing, V domains shown) VH: EVQLLESGGGLVQPGGSLRLSCAASGFTFSSYAMSWVRQAPGKGLEWVSAIIGSGASTYYADSVKGRFTISRDNSKNTLYLQMNSLRAEDTAVYYCAKGWFGGFNYWGQGTLVTVSS VL: EIVLTQSPGTLSLSPGERATLSCRASQSVTSSYLAWYQQKPGQAPRLLINVGSRRATGIPDRFSGSGSGTDFTLTISRLEPEDFAVYYCQQGIMLPPTFGQGTKVEIK
2 |  |  |  |  |  |  |  | 0.09 | 333 | 4600 | 0.00781 | 1.69e+06 | P1AD4470, anti-CD40 control antibody (CD40 IgG1) (antibody, from a related filing, V domains shown) VH: EVQLVESGGGLVQPGGSLRLSCAASGYSFTGYYIHWVRQAPGKGLEWVARVIPNAGGTSYNQKFKGRFTLSVDNSKNTAYLQMNSLRAEDTAVYYCAREGIYWWGQGTLVTVSS VL: DIQMTQSPSSLSASVGDRVTITCRSSQSLVHSNGNTFLHWYQQKPGKAPKLLIYTVSNRFSGVPSRFSGSGSGTDFTLTISSLQPEDFATYFCSQTTHVPWTFGQGTKVEIKR
